Results: patent US20120270271A1 (University of Washington, published 2012)

Biological target: T1, Tse2 (type VI secretion exported protein 2) with glycogen synthase kinase (GSK) tag (Pseudomonas aeruginosa PAO1, UniProt Q9I0E0 1-158)
T1 construct: Toxin as detected in the co-immunoprecipitation in P. aeruginosa lysate; it is placed last here only by default; also called PA2702; not shown: GSK tag used for detection
T1 sequence: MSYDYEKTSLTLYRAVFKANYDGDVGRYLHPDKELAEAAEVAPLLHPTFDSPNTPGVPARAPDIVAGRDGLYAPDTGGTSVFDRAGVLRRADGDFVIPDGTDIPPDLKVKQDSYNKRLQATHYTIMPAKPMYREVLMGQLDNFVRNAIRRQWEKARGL
Assay: co-immunoprecipitation from P. aeruginosa lysate with anti-VSV-G agarose beads, Western blot for GSK-tagged Tse2

B1: Tsi2-V (type VI secretion immunity protein 2 fused to the vesicular stomatitis virus G epitope) (other)
chain: MNLKPQTLMVAIQCVAARTRELDAQLQNDDPQNAAELEQLLVGYDLAADDLKNAYEQALGQYSGLPPYDRLIEEPAS
  binding result: binds
